Source: PMC4148193, “Chromatin Insulator Factors Involved in Long-Range DNA Interactions and Their Role in the Folding of the Drosophila Genome” (PLoS Genetics, 2014)

Assays:
BEAF32 (BEAF32B);CP190 = biological target: T1, BEAF32 (BEAF32B);CP190 (Drosophila;Drosophila, UniProt Q94513;Q24478 1-282;1-1096, |); experiment: FCS/PIE-FCCS; 400 nM BEAF32, 50 nM CP190; cross-correlation 18±6%, 65±22% of complexes bridged; FA/FCS: 30 mM Tris/HCl pH 7.5, 100 mM NaCl, 20 uM ZnSO4, 5 mM mercaptoethanol, 0.01 mg/ml BSA, 0.004% Tween20, 2.5 nM DNA; EMSA: 150 mM NaCl, 30 mM Tris/HCl pH; conditions: protein: recombinant;recombinant; tags: N-term MBP; C-term 6xHis;N-term 6xHis; blunt
T1 sequence 1: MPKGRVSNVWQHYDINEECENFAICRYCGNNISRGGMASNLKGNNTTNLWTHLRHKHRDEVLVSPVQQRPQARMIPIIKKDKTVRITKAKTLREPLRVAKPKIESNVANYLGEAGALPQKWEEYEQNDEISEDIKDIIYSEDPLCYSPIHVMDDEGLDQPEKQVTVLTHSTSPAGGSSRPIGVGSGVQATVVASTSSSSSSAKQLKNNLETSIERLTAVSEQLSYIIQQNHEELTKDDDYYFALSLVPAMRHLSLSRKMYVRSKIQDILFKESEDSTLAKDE
T1 sequence 2: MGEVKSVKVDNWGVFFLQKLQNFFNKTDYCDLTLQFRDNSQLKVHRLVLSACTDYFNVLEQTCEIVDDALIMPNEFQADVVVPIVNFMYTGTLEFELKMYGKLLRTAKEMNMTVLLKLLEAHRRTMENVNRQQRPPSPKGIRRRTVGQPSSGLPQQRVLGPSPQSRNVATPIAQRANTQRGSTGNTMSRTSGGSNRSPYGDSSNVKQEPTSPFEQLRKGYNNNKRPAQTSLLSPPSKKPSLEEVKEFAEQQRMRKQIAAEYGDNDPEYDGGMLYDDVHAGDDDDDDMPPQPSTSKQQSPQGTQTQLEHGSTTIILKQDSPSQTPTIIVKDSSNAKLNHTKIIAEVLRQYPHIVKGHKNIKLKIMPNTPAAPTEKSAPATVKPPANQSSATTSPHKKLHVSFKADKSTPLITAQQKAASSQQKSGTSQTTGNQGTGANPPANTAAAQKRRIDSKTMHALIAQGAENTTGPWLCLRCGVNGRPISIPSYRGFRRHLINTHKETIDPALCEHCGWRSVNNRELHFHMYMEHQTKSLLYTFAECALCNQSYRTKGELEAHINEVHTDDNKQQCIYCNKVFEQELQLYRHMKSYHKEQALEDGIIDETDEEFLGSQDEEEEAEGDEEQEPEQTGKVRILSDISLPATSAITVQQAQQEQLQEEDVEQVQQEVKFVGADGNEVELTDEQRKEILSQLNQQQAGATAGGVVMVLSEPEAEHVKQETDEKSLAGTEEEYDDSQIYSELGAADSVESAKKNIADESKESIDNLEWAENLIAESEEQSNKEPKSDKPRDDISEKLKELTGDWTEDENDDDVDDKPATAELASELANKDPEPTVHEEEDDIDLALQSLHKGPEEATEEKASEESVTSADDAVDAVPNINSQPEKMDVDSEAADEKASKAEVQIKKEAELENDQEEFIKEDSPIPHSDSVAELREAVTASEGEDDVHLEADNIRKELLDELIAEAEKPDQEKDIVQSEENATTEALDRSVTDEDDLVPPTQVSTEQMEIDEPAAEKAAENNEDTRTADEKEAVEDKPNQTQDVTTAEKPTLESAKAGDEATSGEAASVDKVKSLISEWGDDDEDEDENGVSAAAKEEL

BEAF32 (BEAF32B) = biological target: T2, BEAF32 (BEAF32B) (Drosophila, UniProt Q94513 1-282); experiment: competition; unlabeled DNAS vs 2.5 nM Cy3B-DNAS, 100 nM BEAF32; FA/FCS: 30 mM Tris/HCl pH 7.5, 100 mM NaCl, 20 uM ZnSO4, 5 mM mercaptoethanol, 0.01 mg/ml BSA, 0.004% Tween20, 2.5 nM DNA; EMSA: 150 mM NaCl, 30 mM Tris/HCl pH; conditions: protein: recombinant; tags: N-term MBP; C-term 6xHis; blunt
T2 sequence: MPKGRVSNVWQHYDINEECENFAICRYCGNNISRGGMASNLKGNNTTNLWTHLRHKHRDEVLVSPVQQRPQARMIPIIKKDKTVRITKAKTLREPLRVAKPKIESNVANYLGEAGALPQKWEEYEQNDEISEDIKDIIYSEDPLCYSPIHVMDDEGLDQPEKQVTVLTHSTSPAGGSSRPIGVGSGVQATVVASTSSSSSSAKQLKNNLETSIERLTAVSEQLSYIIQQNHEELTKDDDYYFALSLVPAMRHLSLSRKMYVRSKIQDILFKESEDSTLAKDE

[1] = biological target: T3, BEAF32 (BEAF32B);Chromator (Drosophila;Drosophila, UniProt Q94513;Q86BS3 1-282;1-926, |); experiment: FCS/PIE-FCCS; 800 nM BEAF32, 100 nM Chromator; cross-correlation 13±4%, 47±14% of complexes bridged; FA/FCS: 30 mM Tris/HCl pH 7.5, 100 mM NaCl, 20 uM ZnSO4, 5 mM mercaptoethanol, 0.01 mg/ml BSA, 0.004% Tween20, 2.5 nM DNA; EMSA: 150 mM NaCl, 30 mM Tris/HCl pH; conditions: protein: recombinant;recombinant; tags: N-term MBP; C-term 6xHis;N-term 6xHis; blunt
T3 sequence 1: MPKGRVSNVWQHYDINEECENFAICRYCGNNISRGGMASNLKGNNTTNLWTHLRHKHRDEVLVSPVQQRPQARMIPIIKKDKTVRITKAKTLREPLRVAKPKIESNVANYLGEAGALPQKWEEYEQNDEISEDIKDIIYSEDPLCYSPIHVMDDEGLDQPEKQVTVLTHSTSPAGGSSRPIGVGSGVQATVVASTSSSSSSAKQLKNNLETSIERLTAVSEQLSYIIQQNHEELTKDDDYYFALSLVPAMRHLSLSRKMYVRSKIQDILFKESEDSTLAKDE
T3 sequence 2: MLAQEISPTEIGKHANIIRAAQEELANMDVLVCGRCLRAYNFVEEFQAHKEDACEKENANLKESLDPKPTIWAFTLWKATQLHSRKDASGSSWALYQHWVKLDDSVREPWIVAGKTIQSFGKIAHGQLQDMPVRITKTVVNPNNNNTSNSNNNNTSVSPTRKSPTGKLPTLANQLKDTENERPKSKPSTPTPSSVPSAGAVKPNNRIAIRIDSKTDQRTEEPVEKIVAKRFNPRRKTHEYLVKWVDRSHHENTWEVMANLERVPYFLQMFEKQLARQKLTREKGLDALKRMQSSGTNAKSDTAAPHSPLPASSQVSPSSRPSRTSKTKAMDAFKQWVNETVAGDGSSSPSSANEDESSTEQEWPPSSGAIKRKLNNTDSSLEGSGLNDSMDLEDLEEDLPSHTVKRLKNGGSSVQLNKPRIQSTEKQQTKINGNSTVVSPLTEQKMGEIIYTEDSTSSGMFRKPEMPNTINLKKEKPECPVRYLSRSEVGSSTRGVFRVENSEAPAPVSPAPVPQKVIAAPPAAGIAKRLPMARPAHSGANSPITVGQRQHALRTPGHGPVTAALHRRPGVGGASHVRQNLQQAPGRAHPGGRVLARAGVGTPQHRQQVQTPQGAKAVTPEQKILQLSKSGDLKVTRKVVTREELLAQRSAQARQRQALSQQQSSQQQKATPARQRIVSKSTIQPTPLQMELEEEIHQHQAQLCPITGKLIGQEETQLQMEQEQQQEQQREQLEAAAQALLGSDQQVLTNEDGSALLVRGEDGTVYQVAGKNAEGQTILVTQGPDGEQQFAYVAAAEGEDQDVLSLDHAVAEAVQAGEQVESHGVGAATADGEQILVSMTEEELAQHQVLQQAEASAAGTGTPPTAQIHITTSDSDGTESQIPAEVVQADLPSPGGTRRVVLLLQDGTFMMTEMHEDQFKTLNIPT

B1: DNAS (dsDNA)
DNA 1: AGAAGTCAGCGCGATAGCATCGATATTTTCGTGACACGCTTGTCATCCGATAGGTAGT
DNA 2: ACTACCTATCGGATGACAAGCGTGTCACGAAAATATCGATGCTATCGCGCTGACTTCT
binding result (BEAF32 (BEAF32B);CP190): binds | Ki (BEAF32 (BEAF32B)): 20 ± 4 nM | binding result [1]: binds
